Reference: publication doi:10.1101/2025.11.03.686418
Read-outs that look alike come from different tables or passages of the source.

What was measured:
Experiment in all cases: SEC-MALS
[1] = target: His6-QatC (co-expressed with QatB) (Escherichia coli NCTC9009)
[2] = target: His6-QatC (co-expressed with QatB) (Escherichia coli NCTC9009); remark: listed apart in the source
[3] = target: QatB (untagged, co-expressed with His6-QatC) (Escherichia coli NCTC9009)

Substance	stoichiometry N [1]	stoichiometry N [2]	stoichiometry N [3]
QatB (untagged, co-expressed with His6-QatC) (natural protein)	1	1	
QatD (untagged, co-expressed) (enzyme)			1
